To fix the notation:
B4: Nrp1 b1b2 domains (human neuropilin-1) (domain or fragment, UniProt O14786 274-586, looked up)
chain: KCMEALGMESGEIHSDQITASSQYSTNWSAERSRLNYPENGWTPGEDSYREWIQVDLGLLRFVTAVGTQGAISKETKKKYYVKTYKIDVSSNGEDWITIKEGNKPVLFQGNTNPTDVVVAVFPKPLITRFVRIKPATWETGISMRFEVYGCKITDYPCSGMLGMVSGLISDSQITSSNQGDRNWMPENIRLVTSRSGWALPPAPHSYINEWLQIDLGEEKIVRGIIIQGGKHRENKVFMRKFKIGYSNNGSDWKMIMDDSKRKAKSFEGNNNYDTPELRTFPALSTRFIRIYPERATHGGLGLRMELLGCEVE
notes: neuropilin-1 (Nrp1), human, b1b2 coagulation factor domains; Limits of the b1b2 construct are in the cited earlier work; about residues 273-586 as I recall; also called soluble Nrp1; wild-type Nrp1

“And” between values parts separate entries of the source, which are not always exact repeats. Equal values may be shown once. Read-outs that look alike come from different tables or passages of the source. No end group written: not given here.

In one test the target is VEGF-A165. Briefly: AP-Nrp binding to VEGF-A affinity plates. Conditions: parent: est. 100; read off a plot.
The target of test [1] is B4. As to the kind of experiment: AP-fusion solid-phase plate binding assay (competition); C-furSema peptides titrated with AP-VEGF-A (100 µmole p-NPP hydrolyzed/min/L) in incubation buffer on low density Nrp1 affinity plates, 1 h at 25°C; pair: peptide and adsorbed Nrp1. Conditions: both partners purified.
The target of test [2] is AP-fusion of VEGF-A164 (AP-VEGF-A). As to the kind of experiment: AP-fusion solid-phase plate binding assay (competition); Nrp1 b1b2 adsorbed on 96 well plates (2.5 ng/µl, low density); soluble Nrp titrated with AP-VEGF-A (155 µmole p-NPP hydrolyzed/min/L) in 20 mM Tris pH 7.5, 300 mM NaCl, 1 hr at 25°C; retained AP activity read at 405 nm; whether AP-VEGF-A was purified is not given.

Test [3] has the same target. The description is as above. The source holds these as a separate data set.
The target in test [4] is T1, AP-fusion of the Sema3F Ig and basic domains (AP-Sema3F-Ig-basic; residues 605-779) (UniProt Q13275 605-779).
T1 construct: semaphorin 3F (Sema3F), Ig and basic domains, residues 605-779; source: CHO cells, large-scale transient transfection from pAPtag-5
T1 sequence (looked up): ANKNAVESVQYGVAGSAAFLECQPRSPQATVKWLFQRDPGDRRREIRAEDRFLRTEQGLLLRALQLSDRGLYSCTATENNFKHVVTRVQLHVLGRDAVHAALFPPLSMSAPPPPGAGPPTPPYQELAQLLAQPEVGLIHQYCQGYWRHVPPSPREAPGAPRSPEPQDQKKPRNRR
As to the kind of experiment: AP-fusion solid-phase plate binding assay (competition); high density Nrp1 affinity plates (50 ng/µl); soluble Nrp1 or Nrp2 combined with AP-Sema3F-Ig-basic (181 µmole p-NPP hydrolyzed/min/L) in binding buffer (20 mM Tris pH 7.5, 50 mM NaCl), 1 hr at 25°C; whether the AP fusion was purified is not told.

Test [5] concerns the target T2, AP-fusion of full length Sema3F (AP-Sema3F; residues 20-779) (UniProt Q13275 20-779).
T2 construct: source: CHO cells, large-scale transient transfection from pAPtag-5
T2 sequence (looked up): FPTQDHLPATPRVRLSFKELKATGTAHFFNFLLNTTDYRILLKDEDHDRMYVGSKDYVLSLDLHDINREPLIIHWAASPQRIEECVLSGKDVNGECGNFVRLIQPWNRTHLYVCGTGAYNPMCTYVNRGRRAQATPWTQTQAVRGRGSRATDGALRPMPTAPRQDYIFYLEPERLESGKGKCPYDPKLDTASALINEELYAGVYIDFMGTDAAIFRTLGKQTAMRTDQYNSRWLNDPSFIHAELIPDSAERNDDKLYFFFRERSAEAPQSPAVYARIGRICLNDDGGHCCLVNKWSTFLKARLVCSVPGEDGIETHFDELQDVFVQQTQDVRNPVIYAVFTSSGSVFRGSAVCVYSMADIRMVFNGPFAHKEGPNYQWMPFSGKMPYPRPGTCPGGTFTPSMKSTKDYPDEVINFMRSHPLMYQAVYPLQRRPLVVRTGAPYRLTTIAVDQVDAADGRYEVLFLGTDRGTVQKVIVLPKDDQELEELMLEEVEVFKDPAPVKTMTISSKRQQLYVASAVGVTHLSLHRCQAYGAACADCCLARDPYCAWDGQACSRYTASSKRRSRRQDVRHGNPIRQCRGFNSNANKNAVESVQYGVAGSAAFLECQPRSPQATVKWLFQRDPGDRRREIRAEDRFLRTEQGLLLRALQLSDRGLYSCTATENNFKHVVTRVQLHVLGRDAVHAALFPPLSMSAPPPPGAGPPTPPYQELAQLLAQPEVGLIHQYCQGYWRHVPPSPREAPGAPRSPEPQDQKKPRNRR
Briefly: AP-fusion solid-phase plate binding assay (competition); low density Nrp1 affinity plates; soluble Nrp1 or Nrp2 combined with AP-Sema3F (648 µmole p-NPP hydrolyzed/min/L) in incubation buffer (20 mM Tris pH 7.5, 300 mM NaCl), 1 h at 25°C; whether AP-Sema3F was purified is not told.

For orientation: IC50 means the midpoint of a concentration-inhibition curve.

As to “AP-Nrp1 b1b2, wild-type 299-TN-300 replaced by DGR (TN/DGR)”, in the test with VEGF-A165, the percent of parent was determined as 11%.

For “AP-Nrp1 b1b2, wild-type K350Q; K351N; K352G”, the percent of parent in the test with VEGF-A165 is 34%.

As for AP-Nrp1 b1b2, wild-type E304Q; R305Q, in the test with VEGF-A165, the percent of parent worked out at 38%.

Regarding AP-Nrp1 b1b2, wild-type E285R, in the test with VEGF-A165, the percent of parent turned out to be 41%.

For the molecule “AP-Nrp2 b1b2, wild-type Q353K; N354K; G355K”, the percent of parent with VEGF-A165 worked out at 510%.

Regarding “AP-Nrp2 b1b2, wild-type 301-DGR-303 replaced by TN (DGR/TN)”, the percent of parent with VEGF-A165 came out at 310%.

Take AP-Nrp2 b1b2, wild-type Q307E; Q308R: the percent of parent with VEGF-A165 was 60%.

On to AP-Nrp2 b1b2, wild-type R287E, for which the percent of parent with VEGF-A165 came out at 310%.

B1: C-furSema3A (peptide of the C-terminal basic domain of furin processed Sema3A; residues 718-769) (peptide, UniProt Q14563 718-769, looked up)
peptide: MDEFCEQVWKRDRKQRRQRPGHTPGNSNKWKHLQENKKGRNRRTHEFERAPR
modifications: also: dimer via intermolecular disulfide (oxidized)
notes: semaphorin 3A (Sema3A), C-terminal basic domain of the furin processed form, residues 718-769; source: synthetic peptide (Neo-Peptide, Cambridge, MA), oxidized and purified
In test [1], B1 gave a half-inhibitory concentration (IC50) of 67 nM.

B2: C-furSema3F (peptide of the C-terminal basic domain of furin processed Sema3F; residues 740-779) (peptide, UniProt Q13275 740-779, looked up)
peptide: GLIHQYCQGYWRHVPPSPREAPGAPRSPEPQDQKKPRNRR
modifications: also: dimer via intermolecular disulfide (oxidized)
notes: semaphorin 3F (Sema3F), C-terminal basic domain of the furin processed form, residues 740-779; source: synthetic peptide (LifeTein, South Plainfield, NJ), oxidized and purified
In test [1], B2 registered an IC50 of 22 nM.

B3: Nrp2 b1b2 domains (human neuropilin-2) (domain or fragment, UniProt O60462 276-595, looked up)
chain: QCNVPLGMESGRIANEQISASSTYSDGRWTPQQSRLHGDDNGWTPNLDSNKEYLQVDLRFLTMLTAIATQGAISRETQNGYYVKSYKLEVSTNGEDWMVYRHGKNHKVFQANNDATEVVLNKLHAPLLTRFVRIRPQTWHSGIALRLELFGCRVTDAPCSNMLGMLSGLIADSQISASSTQEYLWSPSAARLVSSRSGWFPRIPQAQPGEEWLQVDLGTPKTVKGVIIQGARGGDSITAVEARAFVRKFKVSYSLNGKDWEYIQDPRTQQPKLFEGNMHYDTPDIRRFDPIPAQYVRVYPERWSPAGIGMRLEVLGCDWT
notes: neuropilin-2 (Nrp2), human, b1b2 coagulation factor domains; Limits of the b1b2 construct are in the cited earlier work; also called soluble Nrp2; wild-type Nrp2
In the case of B3, the 50% inhibitory concentration (IC50) in test [2] is 120 µM and 160 µM and 200 µM; in test [3] it was 310 µM; in test [4], 6.2 µM; in test [5], 2700 nM.

B4: the 50% inhibitory concentration (IC50) is 1.6 µM and 2 µM in test [2]; 1.8 µM in test [3]; 1.2 µM in test [4]; 2000 nM in test [5].

The values above are taken from publication PMC3493496, “Mechanism of Selective VEGF-A Binding by Neuropilin-1 Reveals a Basis for Specific Ligand Inhibition” (PLoS ONE, 2012).
